In patent US20020185139A1, “Methods for reducing postoperative intraocular pressure” (priority 2001, published 2002):

System: corneal endothelium
Design: species or system rabbits
Conditions: rabbit, in vivo
Description: In order to investigate the effect of hyaluronidase on the postoperative endothelium, the eyes of the rabbits from Experiment 1 were studied by performing vital staining of the corneal endothelium of the rabbits.

Substance: hyaluronidase
- endothelial damage (vital staining of corneal endothelium): no endothelial damage
